Tests used:
[1] = biological target: human HMGB1 protein (human) (UniProt P09429); assay: SPR, Biacore T100, antibody immobilized on chip, human HMGB1 as analyte
[2] = biological target: T1, human reduced HMGB1 (human, UniProt P09429 1-215, reduced form as printed); assay: SPR as in Example 1; unit inferred; human reduced HMGB1
T1 sequence (looked up): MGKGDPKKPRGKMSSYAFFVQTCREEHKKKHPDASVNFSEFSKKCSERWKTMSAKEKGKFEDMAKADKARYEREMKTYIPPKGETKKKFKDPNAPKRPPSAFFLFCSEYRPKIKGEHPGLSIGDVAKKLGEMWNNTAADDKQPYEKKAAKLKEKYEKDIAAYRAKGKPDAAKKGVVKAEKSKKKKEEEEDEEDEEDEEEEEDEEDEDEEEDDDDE

[3] = biological target: T2, human disulfide HMGB1 (human, UniProt P09429 1-215, disulfide form (ds-HMGB1) as printed; the cysteines involved are not stated); assay: SPR as in Example 1; unit inferred; human dsHMGB1; before storage
T2 construct: also called human dsHMGB1; ds-HMGB1
T2 sequence (looked up): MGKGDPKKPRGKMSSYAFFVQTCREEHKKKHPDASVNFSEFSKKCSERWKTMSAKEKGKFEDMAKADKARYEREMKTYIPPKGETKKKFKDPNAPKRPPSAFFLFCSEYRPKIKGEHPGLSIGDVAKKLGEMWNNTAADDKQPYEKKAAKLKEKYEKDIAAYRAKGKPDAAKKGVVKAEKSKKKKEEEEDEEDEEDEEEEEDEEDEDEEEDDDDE

[4] = biological target: T2, human disulfide HMGB1; assay: SPR, antibody after against before 6-month storage at 4 C
[5] = biological target: T1, human reduced HMGB1; assay: ELISA, saturation curve: concentration of bound antibody against concentration of added antibody, on human reduced HMGB1
[6] = biological target: T2, human disulfide HMGB1; assay: ELISA, saturation curve: concentration of bound antibody against concentration of added antibody, on human dsHMGB1
[7] = biological target: T2, human disulfide HMGB1; assay: SPR, antibody after 6-month storage at 4 C; unit inferred; after storage for 6 months at 4° C

Binder | Kd [1] [nM] | Kd [2] [nM] | Kd [3] [nM] | fold increase of KD after storage against before storage [4] [fold] | Kd [5] [nM] | Km [5] | Kd [6] [nM] | Kd [7] [nM]
mouse monoclonal antibody 2C8C (antibody, from another filing, V domains shown) VH: QVQLQQSGPELVKPGASVKLSCKASGYTFTDYTIHWVKQSPGQGLEWIGWIYPGSGNTKYNDKFKGKATMTADKSSSTAYMQLSSLTSEDSAVYFCARGFAYWGQGTLVTVSA VL: DIVLTQSPATLSVTPGDSVSLSCRASQSISNNLHWYQQKSHESPRLLIKYASQSISGIPSRFSGSGSGTDFTLSINSVETEDFGMYFCQQTNSWPLTFGAGTKLELK | 1.95 |  |  |  |  |  |  | 
human monoclonal antibody #129-L2 (antibody, human IgG1, kappa, V domains shown) VH: EVQLLESGGGLVQPGGSLRLSCAASGFTFSSYAMSWVRQAPGKGLEWVSDISGSGGSTYYADSVKGRFTISRDNSKNTLYLQMNSLRAEDTAVYYCARGYGMDVWGQGTMVTVSS VL: DIQMTQSPSSLSASVGDRVTITCRASQSVTNYLAWYQQKPGKAPKLLIYGASILETGVPSRFSGSGSGTDFTLTINSLQPEDFATYYCLQHASTPLTFGQGTKLEIKT |  | 15100 | 0.0144 | ~2.5 | 6880 | 4.34e-09 M (from the axes; none beside the number) | 0.0549 | 0.0351

From patent US20250353904A1 (INSTITUTE OF SCIENCE TOKYO, published 2025)
